This note sets out measurements from patent US20210253718A1, “FRIZZLED5 PROTEIN-BINDING AGENTS” (Modmab Therapeutics Corporation, priority 2016, published 2021).

Sequences and labels used below:
B1: Fab-2900: anti-FZD5 Fab with antibody variable region Fv-2900; CDR SEQ ID NOs: 35, 36, 39, 78, 115, 153 (antibody, V domains shown)
VH: EVQLVESGGGLVQPGGSLRLSCAASGFNLSSYYIHWVRQAPGKGLEWVASISSSSSSTSYADSVKGRFTISADTSKNTAYLQMNSLRAEDTAVYYCARGALDYWGQGTLVTVSS
VL: DIQMTQSPSSLSASVGDRVTITCRASQSVSSAVAWYQQKPGKAPKLLIYSASSLYSGVPSRFSGSRSGTDFTLTISSLQPEDFATYYCQQWYSGSSLFTFGQGTKVEIK
B2: Fab-2903: anti-FZD5 Fab with antibody variable region Fv-2903; CDR SEQ ID NOs: 35, 36, 42, 81, 118, 155 (antibody, V domains shown)
VH: B1 VH with S31Y, S52Y, S53P, S54Y, S57Y, L101I
VL: B1 VL with Y92G, S93G
B3: Fab-2902: anti-FZD5 Fab with antibody variable region Fv-2902; CDR SEQ ID NOs: 35, 36, 41, 80, 117, 153 (antibody, V domains shown)
VH: B1 VH with L29I, S31Y
VL: B1 VL with S93A, G94F, S95G, S96A, F98I
B4: Fab-2901: anti-FZD5 Fab with antibody variable region Fv-2901; CDR SEQ ID NOs: 35, 36, 40, 79, 116, 154 (antibody, V domains shown)
VH: EVQLVESGGGLVQPGGSLRLSCAASGFNISYSYMHWVRQAPGKGLEWVASIYSYSSYTYYADSVKGRFTISADTSKNTAYLQMNSLRAEDTAVYYCARSWYYWSPSSGMDYWGQGTLVTVSS
VL: DIQMTQSPSSLSASVGDRVTITCRASQSVSSAVAWYQQKPGKAPKLLIYSASSLYSGVPSRFSGSRSGTDFTLTISSLQPEDFATYYCQQGGFLITFGQGTKVEIK

Changes are numbered by the printed parent chain.

In one assay the test system is ASPC-1 cells. The assay can be described thus: Effect of anti-FZD5 Fabs on proliferation of pancreatic cancer cell lines (percent growth inhibition). The assay is classed as cell-based, human. The following applies: Fab 2 μg/ml.
With B1, the “percent growth inhibition, ASPC-1 2 μg/ml” value is reported as −13.30%.
In the case of B2, the “percent growth inhibition, ASPC-1 2 μg/ml” value is reported as 4.49%.
For the molecule B3, the “percent growth inhibition, ASPC-1 2 μg/ml” value was 10.84%.
With B4, the “percent growth inhibition, ASPC-1 2 μg/ml” value is −8.27%.

The subject of a further assay is PATU8988S cells. The description is as above. The assay is classed as cell-based, human. The following applies: Fab 2 μg/ml.
On to B1, for which the “percent growth inhibition, PATU8988s 2 μg/ml” value was −29.28%.
Take B2: the “percent growth inhibition, PATU8988s 2 μg/ml” value is −22.81%.
Take B3: the “percent growth inhibition, PATU8988s 2 μg/ml” value is −15.75%.
With B4, the “percent growth inhibition, PATU8988s 2 μg/ml” value is on record as −9.37%.

Another assay relates to HPAFII cells. The description is as above. The format is cell-based, human. Conditions: Fab 2 μg/ml. Here is the method: (§1) The effect of presently disclosed anti-FZD5 Fabs on proliferation of RNF43 loss-of-function mutant pancreatic cancer cell lines HPAFII, PATU8988S and ASPC-1; and on pancreatic cancer cell line RWP1, was tested at […] and 10 μg/ml.
With B1, the “percent growth inhibition, HPAFII 2 μg/ml” value worked out at 3.34%.
For the molecule B2, the “percent growth inhibition, HPAFII 2 μg/ml” value is recorded as −10.34%.
As to B3, the “percent growth inhibition, HPAFII 2 μg/ml” value amounted to 25.42%.
With B4, the “percent growth inhibition, HPAFII 2 μg/ml” value amounted to 6.38%.

Still in this assay, the particulars now being: Fab 10 μg/ml.
In the case of B1, the “percent growth inhibition, HPAFII 10 μg/ml” value was 3.46%.
In the case of B2, the “percent growth inhibition, HPAFII 10 μg/ml” value is listed as −10.98%.
Regarding B3, the “percent growth inhibition, HPAFII 10 μg/ml” value is recorded as 21.81%.
On the same count and under the same terms, as for B4, the figure is 12.31%.

The test system of the next assay is PATU8988S cells. Described as above. The assay is classed as cell-based, human. The following applies: Fab 10 μg/ml. Here is the method:
as §1
Consider B1, for which the “percent growth inhibition, PATU8988s 10 μg/ml” value was −51.41%.
Take B2: the “percent growth inhibition, PATU8988s 10 μg/ml” value is reported as −16.37%.
For B3, the “percent growth inhibition, PATU8988s 10 μg/ml” value was −32.61%.
For the molecule B4, the “percent growth inhibition, PATU8988s 10 μg/ml” value is reported as −6.65%.

In a further assay the test system is ASPC-1 cells. The assay is described as above. The format is cell-based, human. Conditions: Fab 10 μg/ml. Here is the method:
as §1
As to B1, the “percent growth inhibition, ASPC-1 10 μg/ml” value was −1.26%.
As for B2, the “percent growth inhibition, ASPC-1 10 μg/ml” value was 14.86%.
Consider B3, for which the “percent growth inhibition, ASPC-1 10 μg/ml” value was found to be 17.39%.
On to B4, for which the “percent growth inhibition, ASPC-1 10 μg/ml” value is on record as 11.26%.

Another assay deals with RWP1 cells. The description is as above. The assay is classed as cell-based, human. The following applies: Fab 10 μg/ml. As for the experimental part:
as §1
For B1, the “percent growth inhibition, RWP1 10 μg/ml” value is listed as −29.81%.
The same measure, in the same setting: as for B2, the figure is 17.38%.
On to B3, for which the “percent growth inhibition, RWP1 10 μg/ml” value came out at 31.22%.
The same measure, in the same setting: as for B4, the figure is 21.10%.

In another assay the target is T1, FZD8 CRD (Homo sapiens, UniProt Q9H461).
T1 construct: K31-D155; GPI anchor signal (C); expressed in transfected cells; host or cells: CHO cells, lentiviral pLenti-puro
T1 sequence (Q9H461 31-155): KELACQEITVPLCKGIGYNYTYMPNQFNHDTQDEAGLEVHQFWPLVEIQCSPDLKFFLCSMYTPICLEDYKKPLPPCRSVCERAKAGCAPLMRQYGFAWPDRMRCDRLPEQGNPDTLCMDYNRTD
The assay can be described thus: Immunofluorescence of anti-FZD5 Fab binding to CHO cells overexpressing Frizzled CRD. Also on record: key: −: no binding; +: very weak binder; ++: weak binder; +++: good binder; ++++: very good binder.
Settings: not given
As for the experimental part:
(§2) Plasmids: pLCKO lentiviral vector used for knockout (TKO) library construction and expression of individual gRNAs was constructed as described previously (Hart et al., 2015). Briefly, single guide RNA (sgRNA) scaffold was amplified from px330 (Addgene 42230) and cloned into pLKO.TRC005 lentiviral vector (Broad Institute, Cambridge, Mass.) using AgeI/EcoRI restriction sites. BfuAI sites were added at the 5′ end of the sgRNA scaffold for cloning the TKO library or individual gRNA target sequences. Lenti Cas9-2A-BsdR vector used to generate Cas9 stable expression cell lines was constructed as described previously (Hart et al., 2015). Briefly, lentiCRISPR pXPR_001 (Addgene 49535) was modified through removal of the sgRNA scaffold region through NdeI/EcoRI digest and blunt ends generation using Large Klenow Fragment (NEB). 2A-puro was replaced with 2A-BsdR by PCR using the NheI/MluI sites. Each of the 10 human Frizzled cysteine rich domains (CRDs) were cloned into the lentiviral expression plasmid pLenti-puro in the following cassette: FZD_CRD-MYC-GPI.
(§3) To confirm that the FZD5-WNT7B circuit is not driven simply by expression and rule out the possibility of a disconnect between RNA and protein levels for the Wnt receptors in HPAF-II cells, a panel of recombinant Fabs were generated, alternatively referred to herein as ‘Frizzled profiler’, that can detect and discriminate all but one of the ten Frizzled receptors. […] To characterize the binding specificity of these Fabs on cells, a panel of 10 CHO cell lines was generated, each expressing the CRD domain of a different myc-tagged Frizzled family member anchored at the plasma membrane through a GPI anchor (CHO-myc-FZDGPI). Despite the high sequence identity between Frizzled family members (FIG. 7A, FIG. 7B), selective Fabs were identified for FZD4, FZD5, FZD6 and FZD10 as assessed by immunofluorescence and flow cytometry (FIG. 7D and FIG. 8). […] The FZD8 CRD is most homologous to that of FZD5 (FIG. 7B). These Fabs can be used to discriminate expression of FZD1, FZD2, FZD4, FZD5, FZD6, FZD7, FZD8, FZD9 and FZD10 (FIG. 7D and FIG. 8). The ‘Frizzled profiler’ therefore consists of 10 different Fabs that can be used to discriminate expression of 9 different Frizzled family members. The Frizzled profiler was then used to confirm that HPAF-II cells express FZD1, FZD5, FZD6 and possibly FZD8 (FIG. 7E).
(§4) The binding of anti-FZD5 Fabs to cell surface-expressed Frizzled protein was further determined for each member of the Frizzled family via flow cytometry and immunofluorescence analysis of a panel of 10 CHO cell lines, each ectopically over-expressing the extracellular cysteine-rich domain (CRD) of a different Frizzled protein family member.
Consider B1, for which the “Immunofluorescence binding, Frizzled CRD overexpressed on CHO cells: FZD8” value was “+”.
On the same count and under the same terms, as for B2, the entry is “+”; as for B3, “++”; as for B4, “+”.

The target in a further assay is T2, FZD2 CRD (Homo sapiens, UniProt Q14332).
T2 construct: D35-P161; GPI anchor signal (C); expressed in transfected cells; host or cells: CHO cells, lentiviral pLenti-puro
The description is as above. On the set-up: key: −: no binding; +: very weak binder; ++: weak binder; +++: good binder; ++++: very good binder.
Settings: not given
As for the experimental part:
as §2, §3, §4
As for B1, the “Immunofluorescence binding, Frizzled CRD overexpressed on CHO cells: FZD2” value (shortened to “Immunofluorescence binding … FZD2”) is “−”.
For the molecule B2, the “Immunofluorescence binding … FZD2” value was “−”.
As to B3, the “Immunofluorescence binding … FZD2” value is “−”.
On to B4, for which the “Immunofluorescence binding … FZD2” value is listed as “−”.

Another assay addresses T3, FZD9 CRD (Homo sapiens, UniProt O00144).
T3 construct: G35-A161; GPI anchor signal (C); expressed in transfected cells; host or cells: CHO cells, lentiviral pLenti-puro
T3 sequence (O00144 35-161): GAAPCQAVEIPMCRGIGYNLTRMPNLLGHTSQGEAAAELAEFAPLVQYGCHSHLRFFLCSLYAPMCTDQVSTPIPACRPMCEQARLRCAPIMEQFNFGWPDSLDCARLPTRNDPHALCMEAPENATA
The description is as above. On the set-up: key: −: no binding; +: very weak binder; ++: weak binder; +++: good binder; ++++: very good binder.
Settings: not given
Here is the method: as §2, §3, §4
For B1, the “Immunofluorescence binding, Frizzled CRD overexpressed on CHO cells: FZD9” value is reported as “−”.
As to B2, the “Immunofluorescence binding, Frizzled CRD overexpressed on CHO cells: FZD9” value is listed as “−”.
Still for that read-out and setting: as for B3, the entry is “−”; as for B4, “−”.

Another assay addresses T4, FZD10 CRD (Homo sapiens, UniProt Q9ULW2).
T4 construct: 30-156; GPI anchor signal (C); expressed in transfected cells; host or cells: CHO cells, lentiviral pLenti-puro
T4 sequence (Q9ULW2 30-156): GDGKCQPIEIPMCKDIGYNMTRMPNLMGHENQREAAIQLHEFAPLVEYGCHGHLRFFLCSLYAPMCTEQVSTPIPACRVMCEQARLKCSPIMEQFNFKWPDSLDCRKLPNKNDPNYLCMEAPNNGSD
The assay is described as above. On the set-up: key: −: no binding; +: very weak binder; ++: weak binder; +++: good binder; ++++: very good binder.
Settings: not given
Here is the method: as §2, §3, §4
In the case of B1, the “Immunofluorescence binding, Frizzled CRD overexpressed on CHO cells: FZD10” value (from here on “Immunofluorescence binding … FZD10”) was “−”.
With B2, the “Immunofluorescence binding … FZD10” value was “−”.
Regarding B3, the “Immunofluorescence binding … FZD10” value was “−”.
With B4, the “Immunofluorescence binding … FZD10” value is “−”.

A further assay addresses T5, FZD6 CRD (Homo sapiens, UniProt O60353).
T5 construct: S20-P146; GPI anchor signal (C); expressed in transfected cells; host or cells: CHO cells, lentiviral pLenti-puro
T5 sequence (O60353 20-146): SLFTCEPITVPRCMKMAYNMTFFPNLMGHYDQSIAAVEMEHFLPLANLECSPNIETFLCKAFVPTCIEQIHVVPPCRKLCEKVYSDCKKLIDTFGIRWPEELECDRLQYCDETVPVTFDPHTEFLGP
The assay is described as above. On the set-up: key: −: no binding; +: very weak binder; ++: weak binder; +++: good binder; ++++: very good binder.
Settings: not given
Here is the method:
as §2, §3, §4
Regarding B1, the “Immunofluorescence binding, Frizzled CRD overexpressed on CHO cells: FZD6” value is on record as “−”.
As to B2, the “Immunofluorescence binding, Frizzled CRD overexpressed on CHO cells: FZD6” value is given as “−”.
The same measure, in the same setting: as for B3, the entry is “−”; as for B4, “−”.

The test system of the next assay is RWP1 cells. The assay can be described thus: Effect of anti-FZD5 Fabs on proliferation of pancreatic cancer cell lines (percent growth inhibition). The format is cell-based, human. The following applies: Fab 2 μg/ml.
With B1, the “percent growth inhibition, RWP1 2 μg/ml” value was −28.30%.
For B2, the “percent growth inhibition, RWP1 2 μg/ml” value is on record as 8.52%.
On the same count and under the same terms, as for B3, the figure is 26.56%.
For B4, the “percent growth inhibition, RWP1 2 μg/ml” value is −19.95%.
